Results on five molecules are retold here after patent US20240026024A1 (SHANGHAI HUAOTA BIOPHARMACEUTICAL, published 2024).

Residue numbers refer to the chain shown, from its start. Like-named read-outs stand apart in the source and are kept apart here.

The target of experiment [1] is T1, human CD73 protein (ACRO Biosystems, Cat No. CD3-H52H7) (human, UniProt P21589 27-547).
T1 construct: Bought protein; also called recombinant CD73 protein; recombinant CD73
T1 sequence: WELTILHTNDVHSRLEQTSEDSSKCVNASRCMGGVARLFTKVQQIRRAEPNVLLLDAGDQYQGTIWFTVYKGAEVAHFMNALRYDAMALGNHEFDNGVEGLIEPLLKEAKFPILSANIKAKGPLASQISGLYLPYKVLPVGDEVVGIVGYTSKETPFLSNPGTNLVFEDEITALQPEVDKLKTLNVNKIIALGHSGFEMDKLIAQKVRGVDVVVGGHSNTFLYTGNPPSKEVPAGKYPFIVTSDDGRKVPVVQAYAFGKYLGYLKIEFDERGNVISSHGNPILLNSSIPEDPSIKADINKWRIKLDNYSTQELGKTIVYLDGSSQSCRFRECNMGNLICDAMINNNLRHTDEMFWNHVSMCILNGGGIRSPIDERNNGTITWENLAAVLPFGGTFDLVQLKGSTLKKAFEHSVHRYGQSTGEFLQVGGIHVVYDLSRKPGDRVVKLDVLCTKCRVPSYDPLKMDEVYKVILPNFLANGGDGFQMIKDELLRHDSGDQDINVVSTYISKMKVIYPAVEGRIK
Briefly: SPR (Biacore T200), antibody captured on protein A chip, CD73 as analyte, 1:1 model. As to the method:
The temperatures of the sample chamber and flow path were set at 25° C. The protein A chips separately captured the antigen-binding proteins as ligands, which were immobilized at about 100 RU. […] Ten mM Glycine, pH 1.5, was regenerated for 60 s at a flow rate of 50 μL/min for multiple cycle kinetic detection. The binding rate constant (ka), dissociation rate constant (kd) and dissociation equilibrium rate constant (KD) were fitted using the Fit local mode of a 1:1 binding model.

The target in experiment [2] is T2, human CD73 on the cell surface (human, UniProt P21589 27-549).
T2 construct: also called CHOK1-huCD73-3F4 cells; human CD73-expressing cells
T2 sequence: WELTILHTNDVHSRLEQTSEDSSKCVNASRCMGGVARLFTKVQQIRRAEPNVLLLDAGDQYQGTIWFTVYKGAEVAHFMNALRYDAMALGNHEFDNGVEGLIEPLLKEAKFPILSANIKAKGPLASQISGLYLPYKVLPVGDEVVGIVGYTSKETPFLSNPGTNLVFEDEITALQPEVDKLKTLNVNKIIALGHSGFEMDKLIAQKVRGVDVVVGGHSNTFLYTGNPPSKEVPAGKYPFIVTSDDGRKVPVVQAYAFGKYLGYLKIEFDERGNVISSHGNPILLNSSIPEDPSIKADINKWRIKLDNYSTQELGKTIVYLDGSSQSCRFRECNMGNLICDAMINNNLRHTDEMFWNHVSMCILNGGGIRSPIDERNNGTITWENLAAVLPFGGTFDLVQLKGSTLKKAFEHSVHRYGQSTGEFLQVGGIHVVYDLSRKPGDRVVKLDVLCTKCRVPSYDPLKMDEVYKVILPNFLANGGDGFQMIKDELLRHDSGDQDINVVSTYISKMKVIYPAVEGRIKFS
Put plainly: flow cytometry on CHOK1-huCD73-3F4 cells, PE anti-human Fc. As to the method:
All the antigen-binding proteins were diluted to 30 μg/ml with PBS solution containing 1% BSA (1% BSA/PBS), diluted at 3-fold into 11 gradients and then added to a 96-well U-shaped plate at 20 μL/well, and negative control (1% BSA/PBS was added only) was set up simultaneously. The suspension of human CD73-expressing cells (CHOK1-huCD73-3F4, Huabo Biopharm) in the logarithmic growth phase were collected and centrifuged at 1000 rpm for 5 min, and the culture medium was discarded; then the cells were resuspended with 1% BSA/PBS to a viable cell density of 1×10⁶/mL, and then added into the 96-well U-shaped plate already added with anti-CD73 antigen-binding protein at 20 μL (2×10⁴ cells)/well for reaction at room temperature for 30 min. […] After the reaction, the cells in the 96-well U-shaped plate were resuspended with 1% BSA/PBS and centrifuged at 300 g for 3 min and the supernatant was discarded; after washing in this manner 3 times, and the cells were finally resuspended with 1% BSA/PBS at 100 μL/well, and the fluorescence intensity of the PE channel was measured with a flow cytometer (BD, #Canto II).

Experiment [3] has as its target T2, human CD73 on the cell surface. Put plainly: cell-based or functional assay.
Experiment [4] addresses T3, monkey CD73 (Novoprotein, Cat No. C121) (monkey, UniProt A0A2K5V5U7 27-549).
T3 construct: Bought protein; also called monkey CD73 protein
T3 sequence: T2 sequence with M199T, T350A, V466I
Briefly: SPR (Biacore T200), antibody captured on protein A chip, CD73 as analyte, 1:1 model. As to the method: The temperatures of the sample chamber and flow path were set at 25° C. The protein A chips separately captured the antigen-binding proteins as ligands, which were immobilized at about 100 RU. […] Ten mM Glycine, pH 1.5, was regenerated for 60 s at a flow rate of […] for multiple cycle kinetic detection. The binding rate constant (ka), dissociation rate constant (kd) and dissociation equilibrium rate constant (KD) were fitted using the Fit local mode of a 1:1 binding model.

Experiment [5] deals with T2, human CD73 on the cell surface. Put plainly: cell-based or functional assay. The source holds these as a separate data set.

B1: 900581 (antibody, human IgG1, V domains shown)
VH: EVQLVESGGGLVKPGGSLKLSCAASGFTFSKYAMSWVRQSPEKRLEWVAEISSGGGYINYPDTVTGRFTISRDNAKNTLYLEMSSLRSGDTAMYYCARAIYYYGSSYNYYAMDYWGQGTSVTVSS
VL: DIVMTQSHKFMSTSVGDRVSITCKASQDVGTAEAWYQQKPGQSPKLLIYWASTRHTGVPDRFTGSGSGTDFTLTIGNVQSEDLADYFCQQYSSYPLTFGGGTKLEIK
On to B1, for which the values for the equilibrium dissociation constant (Kd) in experiment [1] and in experiment [4] were 1.65 nM and 1.05 nM, respectively. The koff in experiment [1] was 0.000439 s⁻¹; in experiment [4], 0.000358 s⁻¹. In addition, the results for the kon in experiment [1] and in experiment [4] were 267000 M⁻¹ s⁻¹ and 349000 M⁻¹ s⁻¹, respectively. This molecule also returned a concentration giving a half-maximal response (EC50) in experiment [2] of 0.426 µg/mL. Besides, the entries for the “EC50(µg/mL), inhibition of enzyme activity of CD73 on CHOK1-huCD73-3F4 cells” value (“EC50(µg/mL), inhibition” for short) in experiment [3] and in experiment [5] were 1.85 µg/mL and 0.944 µg/mL, respectively.

B2: 900695 (antibody, V domains shown)
VH: QVQLVESGGGLVKPGGSLRLSCAASGFTFSKYAMSWVRQAPGKGLEWVAEISSGGGYINYADSVTGRFTISRDNAKNSLYLQMNSLRAEDTAVYYCARAIYYYGSSYNYYAMDYWGQGTTVTVSS
VL: DIQMTQSPSSLSASVGDRVTITCRASQDVGTAEAWYQQKPGKAPKLLIYWASTRHTGVPSRFSGSGSGTDFTLTISSLQPEDFATYYCQQYSSYPLTFGQGTKLEIK
notes: Constant regions are not restated
Regarding B2, in experiment [1], the Kd was 2.04 nM, the dissociation rate constant (koff) was determined as 6.03e-05 s⁻¹ and the on-rate constant (kon) came out at 29500 M⁻¹ s⁻¹. Further, in experiment [4], the affinity, expressed as Kd, was 0.822 nM; the dissociation rate constant (koff) is 0.000148 s⁻¹; the kon stood at 180000 M⁻¹ s⁻¹.

B3: 900697 (antibody, V domains shown)
VH: B2 VH
VL: B2 VL with R54L, H55Q, T56S
notes: as for B2
In experiment [1], B3 returned a Kd of 1.29 nM, a koff of 0.000492 s⁻¹ and a kon of 380000 M⁻¹ s⁻¹. Moreover, the “EC50(µg/mL), inhibition” value in experiment [3] was 1.97 µg/mL. In experiment [4], this molecule had a Kd of 2.13 nM, a dissociation rate constant (koff) of 0.000137 s⁻¹ and an on-rate (kon) of 64100 M⁻¹ s⁻¹.

B4: 900696 (antibody, V domains shown)
VH: B2 VH with V37I, T65K
VL: B2 VL with R54L, H55Q, T56S
notes: as for B2
In experiment [1], B4 showed a dissociation constant Kd of 4.23 nM, a koff of 0.000928 s⁻¹ and an on-rate (kon) of 219000 M⁻¹ s⁻¹. Besides, in experiment [4], the Kd is 0.604 nM, the koff came to 0.000214 s⁻¹ and the kon was determined as 354000 M⁻¹ s⁻¹.

B5: 900698 (antibody, V domains shown)
VH: B2 VH with V37I, T65K
VL: B2 VL
notes: as for B2
Turning to B5, in experiment [1], binding was put at a Kd of 3.12 nM, the koff amounted to 0.00106 s⁻¹ and the kon amounted to 339000 M⁻¹ s⁻¹. Moreover, the “EC50(µg/mL), inhibition” value in experiment [3] amounted to 1.43 µg/mL. In experiment [4], this molecule yielded a dissociation constant (Kd) of 1.41 nM, a koff of 0.000115 s⁻¹ and an on-rate (kon) of 108000 M⁻¹ s⁻¹.
